The target in the experiment is T1, human amylin receptor (amylin 3(a) receptor: human calcitonin receptor with RAMP-3) (human, UniProt P30988 25-474; O60896 24-148).
T1 construct: whole, on cells; also called hAmylin-R; hAmylinR
T1 sequence (looked up) 1: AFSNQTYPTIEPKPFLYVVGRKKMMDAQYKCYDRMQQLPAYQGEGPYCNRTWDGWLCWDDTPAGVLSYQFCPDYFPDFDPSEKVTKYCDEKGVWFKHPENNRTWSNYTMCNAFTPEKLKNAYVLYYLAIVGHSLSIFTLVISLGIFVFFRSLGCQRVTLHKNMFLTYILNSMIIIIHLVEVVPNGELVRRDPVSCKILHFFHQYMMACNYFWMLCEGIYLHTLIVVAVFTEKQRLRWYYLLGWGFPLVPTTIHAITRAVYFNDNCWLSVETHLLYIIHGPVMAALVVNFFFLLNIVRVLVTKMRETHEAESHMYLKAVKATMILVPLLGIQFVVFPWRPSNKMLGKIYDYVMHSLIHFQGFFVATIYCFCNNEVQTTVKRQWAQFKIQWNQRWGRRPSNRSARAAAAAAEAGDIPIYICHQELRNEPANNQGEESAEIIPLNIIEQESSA
T1 sequence (looked up) 2: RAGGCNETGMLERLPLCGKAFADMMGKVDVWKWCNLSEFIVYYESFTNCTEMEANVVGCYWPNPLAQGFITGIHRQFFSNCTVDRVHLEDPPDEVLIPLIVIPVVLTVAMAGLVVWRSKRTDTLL
Kind of experiment: SPA displacement of 125I-rat amylin, hAmylin 3(a) receptor membranes. A digest of the protocol:
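Cell membranes were prepared by homogenisation in Na-HEPES/EDTA buffer, pH 7.4, and stored at −80° C. They were then coupled to SPA beads at 35 ng/μL final and exposed to compounds in assay buffer containing CaCl2, MgCl₂, OA and Tween20. After 120 min at 25° C, plates were counted and IC₅₀ derived.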

Numbered stars: 1 amine (or outer) side, 2 acyl side, 3 side chain; on linkers, the order of the positions; unused ones are H or OH. Bridge positions count the residues as written; N and C are the ends. Side chains are listed from the residue outwards. Ends that are not written are not given here. * marks the point of attachment. C20 diacid = O=C(O)CCCCCCCCCCCCCCCCCCC(=O)*; γGlu = O=C(O)[C@H](CCC(=O)[*:2])N[*:1]; AEEA = NCCOCCOCC(=O)O

B1: N^ε1-[2-[2-[2-[[(4S)-4-carboxy-4-(19-carboxynonadecanoylamino)butanoyl]amino]ethoxy]ethoxy]acetyl]-[His14,Arg17,Pro21,Pro27,His34]-h-amylin (peptide)
peptide: K([AEEA-γGlu-C20 diacid])CNTATCATQRLAHFLRHSSPNFGAIPSSTNVGHNTY-NH2
modifications: disulfide 2-7; N-terminus assumed
SMILES: CC[C@H](C)[C@H](NC(=O)[C@H](C)NC(=O)CNC(=O)[C@H](Cc1ccccc1)NC(=O)[C@H](CC(N)=O)NC(=O)[C@@H]1CCCN1C(=O)[C@H](CO)NC(=O)[C@H](CO)NC(=O)[C@H](Cc1c[nH]cn1)NC(=O)[C@H](CCCNC(=N)N)NC(=O)[C@H](CC(C)C)NC(=O)[C@H](Cc1ccccc1)NC(=O)[C@H](Cc1c[nH]cn1)NC(=O)[C@H](C)NC(=O)[C@H](CC(C)C)NC(=O)[C@H](CCCNC(=N)N)NC(=O)[C@H](CCC(N)=O)NC(=O)[C@@H](NC(=O)[C@H](C)NC(=O)[C@@H]1CSSC[C@H](NC(=O)[C@@H](N)CCCCNC(=O)COCCOCCNC(=O)CC[C@H](NC(=O)CCCCCCCCCCCCCCCCCCC(=O)O)C(=O)O)C(=O)N[C@@H](CC(N)=O)C(=O)N[C@@H]([C@@H](C)O)C(=O)N[C@@H](C)C(=O)N[C@@H]([C@@H](C)O)C(=O)N1)[C@@H](C)O)C(=O)N1CCC[C@H]1C(=O)N[C@@H](CO)C(=O)N[C@@H](CO)C(=O)N[C@H](C(=O)N[C@@H](CC(N)=O)C(=O)N[C@H](C(=O)NCC(=O)N[C@@H](Cc1c[nH]cn1)C(=O)N[C@@H](CC(N)=O)C(=O)N[C@H](C(=O)N[C@@H](Cc1ccc(O)cc1)C(N)=O)[C@@H](C)O)C(C)C)[C@@H](C)O
notes: also called 80; compound 80
Usually IC50 stands for the point on the concentration scale where inhibition reaches its midpoint. With B1, the IC50 was determined as 290 pM.

B2: N^ε1-[2-[2-[2-[[(4S)-4-carboxy-4-(19-carboxynonadecanoylamino)butanoyl]amino]ethoxy]ethoxy]acetyl]-[His14,Arg17,Pro21,Pro27,Pro31]-h-amylin (peptide)
peptide: K([AEEA-γGlu-C20 diacid])CNTATCATQRLAHFLRHSSPNFGAIPSSTPVGSNTY-NH2
modifications: disulfide 2-7; N-terminus assumed
SMILES: CC[C@H](C)[C@H](NC(=O)[C@H](C)NC(=O)CNC(=O)[C@H](Cc1ccccc1)NC(=O)[C@H](CC(N)=O)NC(=O)[C@@H]1CCCN1C(=O)[C@H](CO)NC(=O)[C@H](CO)NC(=O)[C@H](Cc1c[nH]cn1)NC(=O)[C@H](CCCNC(=N)N)NC(=O)[C@H](CC(C)C)NC(=O)[C@H](Cc1ccccc1)NC(=O)[C@H](Cc1c[nH]cn1)NC(=O)[C@H](C)NC(=O)[C@H](CC(C)C)NC(=O)[C@H](CCCNC(=N)N)NC(=O)[C@H](CCC(N)=O)NC(=O)[C@@H](NC(=O)[C@H](C)NC(=O)[C@@H]1CSSC[C@H](NC(=O)[C@@H](N)CCCCNC(=O)COCCOCCNC(=O)CC[C@H](NC(=O)CCCCCCCCCCCCCCCCCCC(=O)O)C(=O)O)C(=O)N[C@@H](CC(N)=O)C(=O)N[C@@H]([C@@H](C)O)C(=O)N[C@@H](C)C(=O)N[C@@H]([C@@H](C)O)C(=O)N1)[C@@H](C)O)C(=O)N1CCC[C@H]1C(=O)N[C@@H](CO)C(=O)N[C@@H](CO)C(=O)N[C@H](C(=O)N1CCC[C@H]1C(=O)N[C@H](C(=O)NCC(=O)N[C@@H](CO)C(=O)N[C@@H](CC(N)=O)C(=O)N[C@H](C(=O)N[C@@H](Cc1ccc(O)cc1)C(N)=O)[C@@H](C)O)C(C)C)[C@@H](C)O
notes: also called 61; compound 61
For B2, the IC50 is 122 pM.

(Values after US20140087995A1 (published 2014).)
